Experimental data from paper PMC4333827.

What was measured:
[1] = biological target: C-terminal helical domain-deleted (ΔH-domain) form of CoMsrA (residues 1-144) (Clostridium oremlandii) (UniProt A8MI53); assay: SEC; gel filtration on Superdex S75 16/60 at the final purification step; 10 mM Tris-HCl pH 8.0, 100 mM NaCl
[2] = biological target: C-terminal helical domain-deleted (ΔH-domain) form of CoMsrA (residues 1-144) (Clostridium oremlandii) (UniProt A8MI53); assay: native gel or EMSA; native-PAGE; 0.2 mg/ml protein in 10 mM Tris-HCl pH 8.0, 100 mM NaCl; without and with 10 mM DTT
[3] = biological target: C-terminal helical domain-deleted (ΔH-domain) form of CoMsrA (residues 1-144) (Clostridium oremlandii) (UniProt A8MI53); assay: SEC; gel filtration on Superdex S75 16/60 at the final purification step; 10 mM Tris-HCl pH 8.0, 100 mM NaCl; remark: listed apart in the source
[4] = biological target: C-terminal helical domain-deleted (ΔH-domain) form of CoMsrA (residues 1-144) (Clostridium oremlandii) (UniProt A8MI53); assay: SEC-MALS; SEC-MALLS; WTC-015S5 column, 20 mM Tris-HCl pH 8.0, 100 mM NaCl, 298 K, 0.5 ml/min; 2.5 mg/ml full-length, 1.5 mg/ml ΔH-domain

stoichiometry N [1]: 4 | stoichiometry N [2]: 2 | stoichiometry N [3]: 2 | stoichiometry N [4]: 2
Substance: C-terminal helical domain-deleted (ΔH-domain) form of CoMsrA (residues 1-144) (from UniProt A8MI53 1-144) (domain or fragment)
